The record followed here is US20260274955A1 (JANUX THERAPEUTICS, published 2026).

Experiment [1] concerns the target Anti-CD28 Fab (SEQ ID NOs: 202, 203). The experiment can be described thus: phage binding ELISA on captured Fab.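 Also: clonal phage supernatants added briefly to wells pre-incubated with CD28 antigen or with blocking buffer only, then washed, bound phage read by ELISA using HRP-coupled anti-M13 antibody.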
Description: (§1) Clonal phage were harvested as crude supernatants and screened via standard ELISAs. […] Prior to the addition of clonal phage, wells were incubated with blocking buffer and CD28 antigen or blocking buffer alone. Without washing or aspirating, clonal phage supernatants were then added to the wells and incubated for a short time. Wells were then washed followed by detection of bound phage using a horse radish conjugated anti-M13 antibody.
Experiment [2] has the same target. Put plainly: phage binding ELISA on captured Fab, competitor CD28 antigen.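 Also: clonal phage supernatant binding in wells preincubated with CD28 antigen in blocking buffer, detected by HRP-conjugated anti-M13 antibody ELISA, compared with blocking buffer alone.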
Description: as §1
Experiment [3] has as its target T1, anti-CD28 Fab (SEQ ID NOs: 202, 203).
T1 construct: biotinylated and captured on neutravidin coated plates in the phage ELISA
Put plainly: phage ELISA on captured Fab, wells pre-incubated with CD28 antigen (competitor).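 Also: clonal phage ELISA with wells pretreated with CD28 plus blocking buffer before phage addition, bound phage detected by HRP-linked anti-M13 antibody, reference wells got blocking buffer only.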
Description: as §1

The target is the same in experiment [4]. The experiment can be described thus: phage ELISA on captured Fab.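 Also: ELISA with clonal phage supernatants added to wells preincubated with CD28 antigen or with blocking buffer only, bound phage detected by HRP-conjugated anti-M13 antibody.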
Description: as §1

T1 sequence (VH, as listed by the source, chain 1 of 2): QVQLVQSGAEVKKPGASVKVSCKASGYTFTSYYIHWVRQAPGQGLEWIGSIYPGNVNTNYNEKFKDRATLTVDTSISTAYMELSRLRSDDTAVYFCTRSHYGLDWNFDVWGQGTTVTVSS
T1 sequence (VL, as listed by the source, chain 2 of 2): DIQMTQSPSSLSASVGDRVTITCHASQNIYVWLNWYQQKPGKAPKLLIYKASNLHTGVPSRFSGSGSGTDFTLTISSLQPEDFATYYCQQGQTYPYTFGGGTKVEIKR
Chain of Anti-CD28 Fab (SEQ ID NOs: 202, 203) (VH, as listed by the source, chain 1 of 2): as the sequence (VH, as listed by the source, chain 1 of 2) above
Chain of Anti-CD28 Fab (SEQ ID NOs: 202, 203) (VL, as listed by the source, chain 2 of 2): as the sequence (VL, as listed by the source, chain 2 of 2) above

In the case of YCDGHLETYMQKCL [Phage-865], in experiment [1], the “Anti-CD28 Fab (SEQ ID NOs: 202, 203) signal” value was determined as 0.53. Further, the “Anti-CD28 Fab signal in the presence of CD28” value (“Anti-CD28 Fab signal” below) in experiment [2] came to 0.08.
On the same counts, the results for YCDGHSQIYMSKCL [Phage-882] are 0.42 and 0.06.
On the same counts, the results for YCEGHVELYRQKCL [Phage-864] are 0.56 and 0.06.
As for YCTGWQVAYMQNCF [Phage-884], in experiment [1], the “Anti-CD28 Fab (SEQ ID NOs: 202, 203) signal” value is 0.42. In addition, the “Anti-CD28 Fab signal” value in experiment [2] turned out to be 0.06.
On the same counts, the results for YCEGHVPQYMGKCL [Phage-869] are 0.5 and 0.08.
On the same counts, the results for YCDGHSTEYMWKCL [Phage-874] are 0.49 and 0.06.
Take YCEGHLDEYLQKCM [Phage-867]: in experiment [1], the “Anti-CD28 Fab (SEQ ID NOs: 202, 203) signal” value was 0.51. Moreover, the “Anti-CD28 Fab signal” value in experiment [2] was determined as 0.08.
YCEGHLGLYMKKCL [Phage-871]: in experiment [1], the “Anti-CD28 Fab (SEQ ID NOs: 202, 203) signal” value is 0.49. In experiment [2], the “Anti-CD28 Fab signal” value came out at 0.06.
As for YCEGHIKDYMTKCL [Phage-875], in experiment [1], the “Anti-CD28 Fab (SEQ ID NOs: 202, 203) signal” value was determined as 0.47. The “Anti-CD28 Fab signal” value in experiment [2] turned out to be 0.08.
As to YCAGHIPQYLNKCL [Phage-873], in experiment [1], the “Anti-CD28 Fab (SEQ ID NOs: 202, 203) signal” value came out at 0.49. Moreover, the “Anti-CD28 Fab signal” value in experiment [2] turned out to be 0.07.
Consider YCDGHSPAYIWKCL (on phage, pIII fusion) [Phage-450], for which the “Anti-CD28 Fab signal” value in experiment [3] worked out at 0.08. The “Anti-CD28 Fab (SEQ ID NOs: 202, 203) signal” value in experiment [4] turned out to be 1.68.
As for YCEGHAPVYMQKCL [Phage-878], the “Anti-CD28 Fab (SEQ ID NOs: 202, 203) signal” value in experiment [1] came to 0.44. For the same molecule, the “Anti-CD28 Fab signal” value in experiment [2] is 0.08.
On to YCEGHAQEYMNKCL (on phage, pIII fusion) [Phage-460], for which the “Anti-CD28 Fab signal” value in experiment [3] was 0.06. Also, the “Anti-CD28 Fab (SEQ ID NOs: 202, 203) signal” value in experiment [4] was 1.67.
The corresponding values for YCDGHAAEYMAKCV (on phage, pIII fusion) [Phage-459] are 0.07 and 1.67.
As to YCEGHMQWYMAKCL [Phage-877], the “Anti-CD28 Fab (SEQ ID NOs: 202, 203) signal” value in experiment [1] came out at 0.45. Further, the “Anti-CD28 Fab signal” value in experiment [2] came to 0.09.
Regarding YCDGHSTEYMEKCL (on phage, pIII fusion) [Phage-453], the “Anti-CD28 Fab signal” value in experiment [3] is 0.08. In experiment [4], the “Anti-CD28 Fab (SEQ ID NOs: 202, 203) signal” value was 1.68.
With YCDGHSVEYMEKCL (on phage, pIII fusion) [Phage-476], the “Anti-CD28 Fab signal” value in experiment [3] is 0.09. The “Anti-CD28 Fab (SEQ ID NOs: 202, 203) signal” value in experiment [4] is 1.65.
With YCDGHSQEYMEKCL (on phage, pIII fusion) [Phage-564], the “Anti-CD28 Fab signal” value in experiment [3] was determined as 0.06. In addition, the “Anti-CD28 Fab (SEQ ID NOs: 202, 203) signal” value in experiment [4] came to 1.5.
For the molecule YCEGHLPMYMIKCL (on phage, pIII fusion) [Phage-464], the “Anti-CD28 Fab signal” value in experiment [3] worked out at 0.09. Also, the “Anti-CD28 Fab (SEQ ID NOs: 202, 203) signal” value in experiment [4] was 1.66.
Consider YCAGHTTEYIVKCL [Phage-868], for which, in experiment [1], the “Anti-CD28 Fab (SEQ ID NOs: 202, 203) signal” value stood at 0.5. Further, the “Anti-CD28 Fab signal” value in experiment [2] was found to be 0.05.
YCEGHLSQYMSKCL (on phage, pIII fusion) [Phage-466]: in experiment [3], the “Anti-CD28 Fab signal” value stood at 0.07. The “Anti-CD28 Fab (SEQ ID NOs: 202, 203) signal” value in experiment [4] came to 1.66.
On the same counts, the results for YCDGHIGLYLNKCL (on phage, pIII fusion) [Phage-463] are 0.06 and 1.66.
Take YCDGHTWMYKQKCL [Phage-886]: the “Anti-CD28 Fab (SEQ ID NOs: 202, 203) signal” value in experiment [1] stood at 0.4. In addition, in experiment [2], the “Anti-CD28 Fab signal” value came out at 0.08.
As to YCDGHWPGYLWKCL [Phage-883], the “Anti-CD28 Fab (SEQ ID NOs: 202, 203) signal” value in experiment [1] came to 0.42. Further, the “Anti-CD28 Fab signal” value in experiment [2] turned out to be 0.06.
Regarding YCDGHAQEYMDKCL (on phage, pIII fusion) [Phage-500], in experiment [3], the “Anti-CD28 Fab signal” value worked out at 0.08. In experiment [4], the “Anti-CD28 Fab (SEQ ID NOs: 202, 203) signal” value came out at 1.62.
For the molecule YCDGHAKEYMDKCL (on phage, pIII fusion) [Phage-452], in experiment [3], the “Anti-CD28 Fab signal” value amounted to 0.08. In experiment [4], the “Anti-CD28 Fab (SEQ ID NOs: 202, 203) signal” value was found to be 1.68.
Consider YCDGHAPQWMAKCL (on phage, pIII fusion) [Phage-457], for which the “Anti-CD28 Fab signal” value in experiment [3] worked out at 0.1. For the same molecule, in experiment [4], the “Anti-CD28 Fab (SEQ ID NOs: 202, 203) signal” value came out at 1.67.
In the case of YCDGHDEQYLMKCL [Phage-879], the “Anti-CD28 Fab (SEQ ID NOs: 202, 203) signal” value in experiment [1] came to 0.44. Further, the “Anti-CD28 Fab signal” value in experiment [2] was found to be 0.07.
YCDGHSWQYISKCL (on phage, pIII fusion) [Phage-455]: the “Anti-CD28 Fab signal” value in experiment [3] was determined as 0.05. For the same molecule, the “Anti-CD28 Fab (SEQ ID NOs: 202, 203) signal” value in experiment [4] is 1.67.
Turning to YCQGHLPIYIQKCL [Phage-866], in experiment [1], the “Anti-CD28 Fab (SEQ ID NOs: 202, 203) signal” value is 0.51. Further, in experiment [2], the “Anti-CD28 Fab signal” value came out at 0.07.
On the same counts, the results for YCAGHAQEYMRKCL [Phage-872] are 0.49 and 0.07.
On to YCDGHSREYMSKCL (on phage, pIII fusion) [Phage-458], for which the “Anti-CD28 Fab signal” value in experiment [3] worked out at 0.1. In addition, the “Anti-CD28 Fab (SEQ ID NOs: 202, 203) signal” value in experiment [4] was found to be 1.67.
As to YCDGHSREYMNKCL (on phage, pIII fusion) [Phage-469], the “Anti-CD28 Fab signal” value in experiment [3] was determined as 0.06. Further, in experiment [4], the “Anti-CD28 Fab (SEQ ID NOs: 202, 203) signal” value amounted to 1.66.
In the case of YCDGHAAMYMSKCL [Phage-870], the “Anti-CD28 Fab (SEQ ID NOs: 202, 203) signal” value in experiment [1] turned out to be 0.5. Besides, the “Anti-CD28 Fab signal” value in experiment [2] was 0.07.
In the case of YCDGHSPEYIGKCL (on phage, pIII fusion) [Phage-467], the “Anti-CD28 Fab signal” value in experiment [3] worked out at 0.07. In addition, the “Anti-CD28 Fab (SEQ ID NOs: 202, 203) signal” value in experiment [4] was found to be 1.66.
Regarding YCDGHSEQYMSKCL (on phage, pIII fusion) [Phage-451], the “Anti-CD28 Fab signal” value in experiment [3] worked out at 0.07. Also, the “Anti-CD28 Fab (SEQ ID NOs: 202, 203) signal” value in experiment [4] was found to be 1.68.
For YCDGHSLQYMSKCL (on phage, pIII fusion) [Phage-589], the “Anti-CD28 Fab signal” value in experiment [3] is 0.06. For the same molecule, the “Anti-CD28 Fab (SEQ ID NOs: 202, 203) signal” value in experiment [4] stood at 1.45.
The corresponding values for YCDGHSEVYMAKCL (on phage, pIII fusion) [Phage-471] are 0.06 and 1.66.
On to YCAGHLDEYMEKCL [Phage-885], for which the “Anti-CD28 Fab (SEQ ID NOs: 202, 203) signal” value in experiment [1] was 0.4. In addition, the “Anti-CD28 Fab signal” value in experiment [2] came to 0.07.
YCDGHSSLYMHKCL (on phage, pIII fusion) [Phage-454]: the “Anti-CD28 Fab signal” value in experiment [3] is 0.07. Besides, in experiment [4], the “Anti-CD28 Fab (SEQ ID NOs: 202, 203) signal” value turned out to be 1.67.
Turning to YCEGHAPQYMNKCL (on phage, pIII fusion) [Phage-456], the “Anti-CD28 Fab signal” value in experiment [3] was determined as 0.08. In addition, in experiment [4], the “Anti-CD28 Fab (SEQ ID NOs: 202, 203) signal” value was determined as 1.67.
For YCEGHAPQYMTKCL (on phage, pIII fusion) [Phage-461], in experiment [3], the “Anti-CD28 Fab signal” value was determined as 0.08. For the same molecule, the “Anti-CD28 Fab (SEQ ID NOs: 202, 203) signal” value in experiment [4] turned out to be 1.67.
For the molecule YCAGHDAEYMQKCL [Phage-876], in experiment [1], the “Anti-CD28 Fab (SEQ ID NOs: 202, 203) signal” value amounted to 0.46. The “Anti-CD28 Fab signal” value in experiment [2] stood at 0.06.
Consider YCDGHSADYMAKCL (on phage, pIII fusion) [Phage-462], for which, in experiment [3], the “Anti-CD28 Fab signal” value was found to be 0.07. In experiment [4], the “Anti-CD28 Fab (SEQ ID NOs: 202, 203) signal” value was found to be 1.67.
On to YCEGHLPQYMRPCL (on phage, pIII fusion) [Phage-465], for which the “Anti-CD28 Fab signal” value in experiment [3] is 0.08. Also, in experiment [4], the “Anti-CD28 Fab (SEQ ID NOs: 202, 203) signal” value came out at 1.66.
